tested on: MCF10A; assay: percent viability (nuclei count relative to siNT); higher = more viable cells; conditions: 20 nM; 72 h
Procedure: (§1)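 After 72 h, cells were fixed and stained with Hoechst and anti-fibrillarin, and nucleoli per nucleus were counted with CellProfiler. Values are plate-adjusted percent effect for the one-nucleolus and 5+ nucleoli phenotypes, normalised to siNT (0%) and to the positive controls siNOL11 or siKIF11 (100%), as the mean of biological triplicates. Percent viability is the nuclei count relative to siNT.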

Row | Sequence | percent viability
1 | CUGGGAGGUGUGAUAUCGUGGU [hsa-miR-3689a-3p] | 12.5%
2 | GAGGCAGAAGCAGGAUGACA [hsa-miR-1910-3p] | 38.6%
3 | UUUCUAUUUCUCAGUGGGGCUC [hsa-miR-4482-3p] | 21.2%
4 | UGAAACAUACACGGGAAACCUC [hsa-miR-494] | 24.5%
5 | CCAAAACUGCAGUUACUUUUGC [hsa-miR-548o-3p] | 99.8%
6 | UAGGAUUACAAGUGUCGGCCAC [hsa-miR-3159] | 44.9%
7 | AUUGACACCUCUGUGAGUGGA [hsa-miR-514b-3p] | 32.6%
8 | AGUUGCCUUUUUGUUCCCAUGC [hsa-miR-4423-5p] | 44.9%
9 | UCUCAGUAAGUGGCACUCUGU [hsa-miR-4797-3p] | 47.4%
10 | AAAAGUAACUGCGGUUUUUGA [hsa-miR-548ak] | 89.9%
11 | CGGGGUGGGUGAGGUCGGGC [hsa-miR-4651] | 33.5%
12 | CGGCAACAAGAAACUGCCUGAG [hsa-miR-196a-3p] | 25.1%
13 | UGGGGGGACAGGAUGAGAGGCUGU [hsa-miR-6795-5p] | 16.8%
14 | GAGGGCAGCGUGGGUGUGGCGGA [hsa-miR-4632-5p] | 64.3%
15 | AUCCCACCACUGCCACCAU [hsa-miR-1260b] | 30.7%
16 | AGGCAGGUUAUCUGGGCUG [hsa-miR-4736] | 12%
17 | GGGGCUGGGGCCGGGGCCGAGC [hsa-miR-762] | 59.8%
18 | AUGCGAGGAUGCUGACAGUG [hsa-miR-4737] | 28.3%
19 | GUGGAGUCCUGGGGAAUGGAGA [hsa-miR-3198] | 25.5%
20 | GUGUCUUUUGCUCUGCAGUCA [hsa-miR-511] | 55.3%
21 | UGCUGCCUCUCCUCUUGCCUGCAG [hsa-miR-6882-3p] | 45.6%
22 | CGGGCAUGCUGGGAGAGACUUU [hsa-miR-6862-5p] | 21.6%
23 | AAUAUUAUACAGUCAACCUCU [hsa-miR-656] | 66.6%
24 | UCACAGUGGUCUCUGGGAUUAU [hsa-miR-216a-3p] | 29.5%
25 | GUGUGCGGAAAUGCUUCUGCUA [hsa-miR-147b] | 70.3%
26 | UCGCGGUUUGUGCCAGAUGACG [hsa-miR-579-5p] | 64.6%
27 | UGCCUGGGUCUCUGGCCUGCGCGU [hsa-miR-661] | 23%
28 | GUGUUAAUUAAACCUCUAUUUAC [hsa-miR-2053] | 91.5%
29 | AGGGCCGAAGGGUGGAAGCUGC [hsa-miR-6877-5p] | 41.7%
30 | UGUGGUAGAUAUAUGCACGAU [hsa-miR-4536-5p] | 25.9%

tested on: MCF10A; assay: 5+ nucleoli phenotype percent effect (relative to siNT 0% and siKIF11 100%); higher = more cells with five or more nucleoli; conditions: 20 nM; 72 h
Procedure: as §1

Row | Sequence | 5+ nucleoli phenotype percent effect
31 | UGUAGGCAUGAGGCAGGGCCCAGG [hsa-miR-6806-5p] | 44.5%
32 | UUGGGCCCAGGAGUAAACAGGAU [hsa-miR-6773-5p] | -4.65%
33 | CUUCCAGACGCUCCGCCCCACGUCG [hsa-miR-3180-5p] | 28.4%
34 | UAGUACUGUGCAUAUCAUCUAU [hsa-miR-1278] | -12.8%
35 | GCCGGACAAGAGGGAGG [hsa-miR-4442] | 25.4%
36 | UUCCCUUUGUCAUCCUUCGCCU [hsa-miR-211-5p] | 49.7%
37 | ACAUACUUCUUUAUAUGCCCAU [hsa-miR-1-5p] | -8.68%
38 | GUUCCUGCUGAACUGAGCCAG [hsa-miR-3074-5p] | -17.7%
39 | UUUCCUACCCUACCUGAAGACU [hsa-miR-3685] | -32.6%
40 | GAGUUCUACAGUCAGAC [hsa-miR-3168] | -12.9%
41 | CGGUGAGCGCUCGCUGGC [hsa-miR-4792] | -30.2%
42 | UUCCGCCAGUCGGUGGCCGG [hsa-miR-6084] | 0.691%
43 | UGAGUGAUUGAUAGCUAUGUUC [hsa-miR-4765] | 24.9%
44 | AUAUAAUACAACCUGCUAAGUG [hsa-miR-374b-5p] | 35.9%
45 | UUAUAAAGCAAUGAGACUGAUU [hsa-miR-340-5p] | -24.6%
46 | AGGCCCUGUCCUCUGCCCCAG [hsa-miR-6775-3p] | 11.1%
47 | GCCCUGAACGAGGGGUCUGGAG [hsa-miR-345-3p] | 29.8%
48 | GAUGAUGAUGGCAGCAAAUUCUGAAA [hsa-miR-1272] | 4.28%
49 | CCUCUGGGCCCUUCCUCCAG [hsa-miR-326] | -35.6%
50 | AAUUCUGUAAAGGAAGAAGAGG [hsa-miR-4778-5p] | 32.3%

Row | Sequence | 5+ nucleoli phenotype percent effect
51 | GUGGACCUGGCUGGGAC [hsa-miR-4535] | 17.4%
52 | UUUUUCAUUAUUGCUCCUGACC [hsa-miR-335-3p] | 26.8%
53 | UCCCUACCCCUCCACUCCCCA [hsa-miR-3162-3p] | 53.4%
54 | AGGCUGCGGAAUUCAGGAC [hsa-miR-604] | -15.7%
55 | UGCUGGCUCAUUUCAUAUGUGU [hsa-miR-5580-5p] | -18.4%
56 | UGCGUUUCUCCUCUUGAGCAG [hsa-miR-6854-3p] | -12.2%
57 | AAUCCUUUGUCCCUGGGUGAGA [hsa-miR-501-5p] | -22.9%
58 | UGGGGACGUAGCUGGCCAGACAG [hsa-miR-3191-3p] | 4.11%
59 | AACUGGCCCUCAAAGUCCCGCU [hsa-miR-193b-3p] | -6.55%
60 | CUGGGAGGUGUGAUAUCGUGGU [hsa-miR-3689a-3p] | 27.1%
61 | GAGGCAGAAGCAGGAUGACA [hsa-miR-1910-3p] | -17.5%
62 | UUUCUAUUUCUCAGUGGGGCUC [hsa-miR-4482-3p] | 0.737%
63 | UGAAACAUACACGGGAAACCUC [hsa-miR-494] | -37.3%
64 | CCAAAACUGCAGUUACUUUUGC [hsa-miR-548o-3p] | 27.5%
65 | UAGGAUUACAAGUGUCGGCCAC [hsa-miR-3159] | -4.52%
66 | AUUGACACCUCUGUGAGUGGA [hsa-miR-514b-3p] | -12.5%
67 | AGUUGCCUUUUUGUUCCCAUGC [hsa-miR-4423-5p] | -0.303%
68 | UCUCAGUAAGUGGCACUCUGU [hsa-miR-4797-3p] | -38.9%
69 | AAAAGUAACUGCGGUUUUUGA [hsa-miR-548ak] | 45.4%
70 | CGGGGUGGGUGAGGUCGGGC [hsa-miR-4651] | -1.6%

Row | Sequence | 5+ nucleoli phenotype percent effect
71 | CGGCAACAAGAAACUGCCUGAG [hsa-miR-196a-3p] | -32.7%
72 | UGGGGGGACAGGAUGAGAGGCUGU [hsa-miR-6795-5p] | -6.99%
73 | GAGGGCAGCGUGGGUGUGGCGGA [hsa-miR-4632-5p] | 13.1%
74 | AUCCCACCACUGCCACCAU [hsa-miR-1260b] | 18.9%
75 | AGGCAGGUUAUCUGGGCUG [hsa-miR-4736] | 13.2%
76 | GGGGCUGGGGCCGGGGCCGAGC [hsa-miR-762] | 53.9%
77 | AUGCGAGGAUGCUGACAGUG [hsa-miR-4737] | -33.6%
78 | GUGGAGUCCUGGGGAAUGGAGA [hsa-miR-3198] | -28.7%
79 | GUGUCUUUUGCUCUGCAGUCA [hsa-miR-511] | -3.71%
80 | UGCUGCCUCUCCUCUUGCCUGCAG [hsa-miR-6882-3p] | 44.3%
81 | CGGGCAUGCUGGGAGAGACUUU [hsa-miR-6862-5p] | -13%
82 | AAUAUUAUACAGUCAACCUCU [hsa-miR-656] | 6.28%
83 | UCACAGUGGUCUCUGGGAUUAU [hsa-miR-216a-3p] | -17.5%
84 | GUGUGCGGAAAUGCUUCUGCUA [hsa-miR-147b] | 33.7%
85 | UCGCGGUUUGUGCCAGAUGACG [hsa-miR-579-5p] | 41.8%
86 | UGCCUGGGUCUCUGGCCUGCGCGU [hsa-miR-661] | -18.5%
87 | GUGUUAAUUAAACCUCUAUUUAC [hsa-miR-2053] | 3.14%
88 | AGGGCCGAAGGGUGGAAGCUGC [hsa-miR-6877-5p] | -6.96%
89 | UGUGGUAGAUAUAUGCACGAU [hsa-miR-4536-5p] | -25.4%

Source: the supplement of paper PMC10899765
